# Tests used:
# Type in all cases: biochemical, E. coli
# [1] = substrate: NC(=O)C1=CN([C@@H]2O[C@H](COP(=O)(O)OP(=O)(O)OC[C@H]3O[C@@H](n4cnc5c(N)ncnc54)[C@H](O)[C@@H]3O)[C@@H](O)[C@H]2O)C=CC1; experiment: KARI assay, purified Ec_IlvC^P2D1-A1-his6; settings: other: expressed in yeast GEVO1186, purified; 30.0 °C
# Method: (§1) KARI cuvette assay: KARI activity was assayed kinetically by monitoring the decrease in NAD(P)H concentration by measuring the absorbance at 340 nm. A reaction buffer was prepared containing 250 mM potassium phosphate pH 7, 1 mM DTT and 10 mM MgCl2. Cell pellets were resuspended (0.25 g wet weight/mL buffer) in 250 mM potassium phosphate (KPi) buffer containing 1 mM DTT and 10 mM MgCl2. The resuspended cells were lysed by sonication for 1 min with a 50% duty cycle and pelleted at 11000×g and 4° C. for 15 min. A reaction mixture consisting of 910 μl reaction buffer, 50 μl acetolactate, and 20 μl lysate was prepared in a cuvette. The reaction was initiated by addition of 20 μL of 10 mM NAD(P)H. A substrate free control was conducted using reaction buffer without the addition of acetolactate.
# (§2) Purification of KARI: Cell pellets used for purification were resuspended in purification buffer A (20 mM Tris, 20 mM imidazol, 100 mM NaCl, 10 mM MgCl2, pH 7.4). KARI was purified by IMAC (Immobilized metal affinity chromatography) over a 1 ml Histrap High Performance (histrap HP) column pre-charged with Nickel (GE Healthcare) using an Akta FPLC system (GE Healthcare). The column was equilibrated with four column volumes (cv) of buffer A. After injecting the crude extract, the column was washed with buffer A for 2 cv, followed by a wash step with a mixture of 10% elution buffer B (20 mM Tris, 300 mM imidazol, 100 mM NaCl, 10 mM MgCl2, pH 7.4) for 5 cv. KARI variants were eluted at 40% buffer B and stored at 4° C.
# Improved variants were expressed and purified from GEVO1186. 20 mL SC-URA medium overnight cultures were grown at 30° C. and 250 rpm in 250 mL flasks and were then used to inoculate 96 well deep well plates on the next morning. 50 μL of the overnight cultures were transferred into 600 μL SC-URA medium per well. The plates were then grown at 30° C. and 250 rpm in a humidified plate shaker for 8 h. In order to the harvest, the cultures were transferred into 50 mL Falcon tubes and then spun down at 4° C. and 5,000 rpm for 10 min. […]
# [2] = substrate: NC(=O)C1=CN([C@@H]2O[C@H](COP(=O)(O)OP(=O)(O)OC[C@H]3O[C@@H](n4cnc5c(N)ncnc54)[C@H](OP(=O)(O)O)[C@@H]3O)[C@@H](O)[C@H]2O)C=CC1; experiment: KARI assay, purified Ec_IlvC^P2D1-his6; settings: other: expressed in yeast GEVO1186, purified; 30.0 °C
# Method: as §1, §2
# (§3) Improved variants were expressed and purified from GEVO1186. 20 mL SC-URA medium overnight cultures were grown at 30° C. and 250 rpm in 250 mL flasks and were then used to inoculate 96 well deep well plates on the next morning. 50 μL of the overnight cultures were transferred into 600 μL SC-URA medium per well. The plates were then grown at 30° C. and 250 rpm in a humidified plate shaker for 8 h. In order to the harvest, the cultures were transferred into 50 mL Falcon tubes and then spun down at 4° C. and 5,000 rpm for 10 min. The pellets were frozen until they were processed and purified as described in Example 14 above.
# (§4) Results: Two rounds of error-prone PCR and screening were carried out. The libraries (˜2400 clones per library) were screened using the KARI high-throughput assay. […] In the first round variant Ec_llvC^P2D1-his6 (SEQ ID NO: 38), encoded by Ec_ilvC_coSc^P2D1-his6 (SEQ ID NO: 37) was identified carrying the following mutations: D146G and G185R. This variant served as parent for the second round of error-prone PCR and screening which yielded variant Ec_llvC^P2D1-A1-his6 (SEQ ID NO: 42), encoded by Ec_ilvC_coSc^P2D1-A1-his6 (SEQ ID NO: 41) with one additional mutation (K433E). A two-fold improvement of the specific activity in lysate and in the purified enzyme was observed after two rounds of error-prone PCR.
# [3] = substrate: NC(=O)C1=CN([C@@H]2O[C@H](COP(=O)(O)OP(=O)(O)OC[C@H]3O[C@@H](n4cnc5c(N)ncnc54)[C@H](O)[C@@H]3O)[C@@H](O)[C@H]2O)C=CC1; experiment: KARI assay, purified Ec_IlvC^P2D1-his6; settings: other: expressed in yeast GEVO1186, purified; 30.0 °C
# Method: as §1, §2, §3, §4
# [4] = substrate: NC(=O)C1=CN([C@@H]2O[C@H](COP(=O)(O)OP(=O)(O)OC[C@H]3O[C@@H](n4cnc5c(N)ncnc54)[C@H](OP(=O)(O)O)[C@@H]3O)[C@@H](O)[C@H]2O)C=CC1; experiment: KARI assay, purified Ec_IlvC^6E6-his6; settings: other: Example 15, expressed in E. coli BL21(DE3), purified; 30.0 °C
# Method: as §1, §2
# (§5) Only 20% of the enzymes of the recombination library were active on NADH. After screening 1,000 clones using the NADH depletion assay at 340 nm, 26 KARI variants were selected for a rescreen by the high-throughput assay described in Example 14 and eight thereof were expressed in 25 ml LBamp medium in shake flasks according to the protocol for cell growth and protein expression in shake flasks as described in Example 14, purified according to the protocol for purification of KARI enzymes as described in Example 14, and NAD(P)H depletion at 340 nm was measured again. […] The KM values of variants Ec_llvC^2H10-his6 and Ec_llvC^6E6-his6 were measured and the catalytic efficiencies were calculated.
# as §3
# [5] = substrate: NC(=O)C1=CN([C@@H]2O[C@H](COP(=O)(O)OP(=O)(O)OC[C@H]3O[C@@H](n4cnc5c(N)ncnc54)[C@H](O)[C@@H]3O)[C@@H](O)[C@H]2O)C=CC1; experiment: KARI assay, purified Ec_IlvC^6E6-his6; settings: 30.0 °C
# Method: as §1, §2, §5, §3
# [6] = substrate: NC(=O)C1=CN([C@@H]2O[C@H](COP(=O)(O)OP(=O)(O)OC[C@H]3O[C@@H](n4cnc5c(N)ncnc54)[C@H](OP(=O)(O)O)[C@@H]3O)[C@@H](O)[C@H]2O)C=CC1; experiment: KARI cuvette assay, purified Ec_IlvC^B8A71S-his6; settings: other: purified; acetolactate as substrate
# Method: as §1, §2
# (§6) As a next step, the gene encoding variant Ec_llvC^Q110V-his6 (SEQ ID NO: 23) was used as template to generate individual combinations of the mutation Q110V with other mutations: R68L, A71T, A71S, R76G, R76S, R76T, S78D, and R76D. After screening the variants as described above, the most promising ones were expressed, purified, and characterized. Table 29 lists the KM values in μM on NADPH and NADH for Ec_llvC^his6, Ec_llvC^Q110V-his6, and variants of Ec_llvC^Q110V-his6. […] The A71S mutation was introduced into Ec_llvC^B8-his6 resulting in a variant Ec_llvC^B8A71S-his6, which yielded 44% catalytic efficiency on NADH compared to the catalytic efficiency of wild-type KARI on NADPH (FIG. 19 and Table 30).
# [7] = substrate: NC(=O)C1=CN([C@@H]2O[C@H](COP(=O)(O)OP(=O)(O)OC[C@H]3O[C@@H](n4cnc5c(N)ncnc54)[C@H](O)[C@@H]3O)[C@@H](O)[C@H]2O)C=CC1; experiment: KARI cuvette assay, purified Ec_IlvC^B8A71S-his6
# Method: as §1, §2, §6
# [8] = other: Example 15, expressed in E. coli BL21(DE3), purified
# [9] = other: Example 16, expressed in yeast GEVO1186, purified
# [10] = other: purified, acetolactate as substrate
protein,measurement,setting,value
"E. coli KARI Ec_IlvC variant Ec_IlvC^P2D1-A1-his6 (Ec_IlvC^P2D1-his6 with K433E), SEQ ID NO: 42 (Escherichia coli K-12; A71S/D146G/G185R/K433E/Q110V/R76D/S78D) (protein) MANYFNTLNLRQQLAQLGKCRFMGRDEFADGASYLQGKKVVIVGCGAQGLNQGLNMRDSGLDISYALRKESIAEKDADWRKATENGFKVGTYEELIPQADLVINLTPDKVHSDVVRTVQPLMKDGAALGYSHGFNIVEVGEQIRKGITVVMVAPKCPGTEVREEYKRGFGVPTLIAVHPENDPKREGMAIAKAWAAATGGHRAGVLESSFVAEVKSDLMGEQTILCGMLQAGSLLCFDKLVEEGTDPAYAEKLIQFGWETITEALKQGGITLMMDRLSNPAKLRAYALSEQLKEIMAPLFQKHMDDIISGEFSSGMMADWANDDKKLLTWREETGKTAFETAPQYEGKIGEQEYFDKGVLMIAMVKAGVELAFETMVDSGIIEESAYYESLHELPLIANTIARKRLYEMNVVISDTAEYGNYLFSYACVPLLEPFMAELQPGDLGKAIPEGAVDNGQLRDVNEAIRSHAIEQVGKKLRGYMTDMKRIAVAGHHHHHH",Km,[1],26 µM
same,kcat,[1],4.3 s⁻¹
same,kcat/Km,[1],"167,687 M^−1 * S^−1"
"E. coli KARI Ec_IlvC variant Ec_IlvC^P2D1-his6 (Ec_IlvC^6E6-his6 with D146G and G185R), SEQ ID NO: 38 (Escherichia coli K-12; A71S/D146G/G185R/Q110V/R76D/S78D) (protein) MANYFNTLNLRQQLAQLGKCRFMGRDEFADGASYLQGKKVVIVGCGAQGLNQGLNMRDSGLDISYALRKESIAEKDADWRKATENGFKVGTYEELIPQADLVINLTPDKVHSDVVRTVQPLMKDGAALGYSHGFNIVEVGEQIRKGITVVMVAPKCPGTEVREEYKRGFGVPTLIAVHPENDPKREGMAIAKAWAAATGGHRAGVLESSFVAEVKSDLMGEQTILCGMLQAGSLLCFDKLVEEGTDPAYAEKLIQFGWETITEALKQGGITLMMDRLSNPAKLRAYALSEQLKEIMAPLFQKHMDDIISGEFSSGMMADWANDDKKLLTWREETGKTAFETAPQYEGKIGEQEYFDKGVLMIAMVKAGVELAFETMVDSGIIEESAYYESLHELPLIANTIARKRLYEMNVVISDTAEYGNYLFSYACVPLLKPFMAELQPGDLGKAIPEGAVDNGQLRDVNEAIRSHAIEQVGKKLRGYMTDMKRIAVAGHHHHHH",Km,[2],1432 µM
same,kcat,[2],0.54 s⁻¹
same,kcat/Km,[2],377 M^−1 * S^−1
same,Km,[3],40 µM
same,kcat,[3],3.3 s⁻¹
same,kcat/Km,[3],"82,650 M^−1 * S^−1"
"E. coli KARI Ec_IlvC variant Ec_IlvC^6E6-his6 (A71S, R76D, S78D, Q110V), SEQ ID NO: 34 (Escherichia coli K-12; A71S/Q110V/R76D/S78D) (protein, T37 values cited for the gene on pGV1975) MANYFNTLNLRQQLAQLGKCRFMGRDEFADGASYLQGKKVVIVGCGAQGLNQGLNMRDSGLDISYALRKESIAEKDADWRKATENGFKVGTYEELIPQADLVINLTPDKVHSDVVRTVQPLMKDGAALGYSHGFNIVEVGEQIRKDITVVMVAPKCPGTEVREEYKRGFGVPTLIAVHPENDPKGEGMAIAKAWAAATGGHRAGVLESSFVAEVKSDLMGEQTILCGMLQAGSLLCFDKLVEEGTDPAYAEKLIQFGWETITEALKQGGITLMMDRLSNPAKLRAYALSEQLKEIMAPLFQKHMDDIISGEFSSGMMADWANDDKKLLTWREETGKTAFETAPQYEGKIGEQEYFDKGVLMIAMVKAGVELAFETMVDSGIIEESAYYESLHELPLIANTIARKRLYEMNVVISDTAEYGNYLFSYACVPLLKPFMAELQPGDLGKAIPEGAVDNGQLRDVNEAIRSHAIEQVGKKLRGYMTDMKRIAVAGLEHHHHHH",Km,[4],653 µM
same,kcat,[4],0.2 s⁻¹
same,kcat/Km,[4],386 M⁻¹ s⁻¹
same,Km,[5]; [8],31.6 µM
same,kcat,[5]; [8],2.3 s⁻¹
same,kcat/Km,[5]; [8],74045 M⁻¹ s⁻¹
same,Km,[5]; [9],39 µM
same,kcat,[5]; [9],2.4 s⁻¹
same,kcat/Km,[5]; [9],"63,000 M^−1 * S^−1"
"E. coli KARI Ec_IlvC variant Ec_IlvC^B8A71S-his6 (Q110V, S78D, A71S), SEQ ID NO: 29 (Escherichia coli K-12; A71S/Q110V/S78D) (protein) MANYFNTLNLRQQLAQLGKCRFMGRDEFADGASYLQGKKVVIVGCGAQGLNQGLNMRDSGLDISYALRKESIAEKRADWRKATENGFKVGTYEELIPQADLVINLTPDKVHSDVVRTVQPLMKDGAALGYSHGFNIVEVGEQIRKDITVVMVAPKCPGTEVREEYKRGFGVPTLIAVHPENDPKGEGMAIAKAWAAATGGHRAGVLESSFVAEVKSDLMGEQTILCGMLQAGSLLCFDKLVEEGTDPAYAEKLIQFGWETITEALKQGGITLMMDRLSNPAKLRAYALSEQLKEIMAPLFQKHMDDIISGEFSSGMMADWANDDKKLLTWREETGKTAFETAPQYEGKIGEQEYFDKGVLMIAMVKAGVELAFETMVDSGIIEESAYYESLHELPLIANTIARKRLYEMNVVISDTAEYGNYLFSYACVPLLKPFMAELQPGDLGKAIPEGAVDNGQLRDVNEAIRSHAIEQVGKKLRGYMTDMKRIAVAGLEHHHHHH",Km,[6],63.4 µM
same,kcat,[6],2.4 s⁻¹
same,kcat/Km,[6],"37,459 M^−1 * s^−1"
same,Km,[7]; [10],53.5 µM
same,kcat,[7]; [10],2.0 s⁻¹
same,kcat/Km,[7]; [10],"38,330 M^−1 * s^−1"
same,kcat/Km,[7]; with NADH,37500 M⁻¹ s⁻¹

# Source: patent US8097440B1, “Engineered microorganisms capable of producing target compounds under anaerobic conditions” (Gevo, Inc., priority 2008, dated 2012)
